Measured values: patent publication US20200317768A1 (published 2020)

T1: cynomolgus monkey FcγRIIa2 extracellular domain, His-tagged (cynomolgus monkey)
T1 construct: also called cyno FcgRIIa2; cynoFcγRIIa2; not shown: His-tag added to the C-terminus
T1 chain: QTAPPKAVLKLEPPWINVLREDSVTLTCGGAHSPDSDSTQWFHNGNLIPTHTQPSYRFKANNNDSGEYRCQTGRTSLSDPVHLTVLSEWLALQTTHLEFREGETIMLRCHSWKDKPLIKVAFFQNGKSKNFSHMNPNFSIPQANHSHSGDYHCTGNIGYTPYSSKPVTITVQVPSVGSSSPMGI

T2: cynomolgus monkey FcγRIIa1 extracellular domain, His-tagged (cynomolgus monkey)
T2 construct: also called cyno FcgRIIa1; cynoFcγRIIa1; not shown: His-tag added to the C-terminus
T2 chain: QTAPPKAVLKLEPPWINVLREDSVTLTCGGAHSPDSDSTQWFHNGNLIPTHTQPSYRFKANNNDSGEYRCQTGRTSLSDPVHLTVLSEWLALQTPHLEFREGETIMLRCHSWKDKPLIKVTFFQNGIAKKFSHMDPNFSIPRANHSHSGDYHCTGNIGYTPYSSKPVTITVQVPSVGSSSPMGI

T3: human FcγRIIaH extracellular domain, His-tagged (human, UniProt P12318 34-217)
T3 construct: also called human FcgRIIaH; FcγRIIa (type H); not shown: His-tag added to the C-terminus
T3 sequence: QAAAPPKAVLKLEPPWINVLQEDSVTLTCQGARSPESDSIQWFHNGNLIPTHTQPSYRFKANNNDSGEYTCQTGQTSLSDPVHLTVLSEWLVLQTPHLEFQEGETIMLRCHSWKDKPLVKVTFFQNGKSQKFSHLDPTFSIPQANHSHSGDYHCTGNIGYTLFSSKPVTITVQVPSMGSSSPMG

T4: cynomolgus monkey FcγRIIa3 extracellular domain, His-tagged (cynomolgus monkey)
T4 construct: also called cyno FcgRIIa3; cynoFcγRIIa3; not shown: His-tag added to the C-terminus
T4 chain: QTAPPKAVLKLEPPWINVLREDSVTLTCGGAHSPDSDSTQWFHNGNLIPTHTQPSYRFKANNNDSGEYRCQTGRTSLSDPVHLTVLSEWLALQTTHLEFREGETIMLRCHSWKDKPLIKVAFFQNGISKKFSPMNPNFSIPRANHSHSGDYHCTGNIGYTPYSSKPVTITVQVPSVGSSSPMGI

T5: human FcγRIIb extracellular domain, C-terminal His-tag (human, UniProt P31994 43-217)
T5 construct: also called humanFcgRIIb; not shown: His-tag added to C-terminus
T5 sequence: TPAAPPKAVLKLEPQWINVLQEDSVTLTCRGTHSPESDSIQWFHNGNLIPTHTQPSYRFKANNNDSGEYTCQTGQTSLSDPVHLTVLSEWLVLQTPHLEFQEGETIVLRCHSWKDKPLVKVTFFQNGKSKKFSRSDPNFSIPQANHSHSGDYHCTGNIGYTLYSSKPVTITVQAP

T6: human FcγRIIaR extracellular domain, C-terminal His-tag (human, UniProt P12318 34-217)
T6 construct: also called human FcγRIIa (type R); FcgRIIaR; not shown: His-tag added to C-terminus
T6 chain: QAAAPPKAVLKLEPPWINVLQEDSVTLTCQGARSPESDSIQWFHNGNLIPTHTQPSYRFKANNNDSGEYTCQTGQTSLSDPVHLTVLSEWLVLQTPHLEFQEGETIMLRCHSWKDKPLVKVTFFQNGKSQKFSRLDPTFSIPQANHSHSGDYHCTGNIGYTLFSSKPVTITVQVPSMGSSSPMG

T7: human FcγRIIaH extracellular domain, C-terminal His-tag (human, UniProt P12318 34-217)
T7 construct: also called human FcγRIIa (type H); FcgRIIaH; not shown: His-tag added to C-terminus
T7 sequence: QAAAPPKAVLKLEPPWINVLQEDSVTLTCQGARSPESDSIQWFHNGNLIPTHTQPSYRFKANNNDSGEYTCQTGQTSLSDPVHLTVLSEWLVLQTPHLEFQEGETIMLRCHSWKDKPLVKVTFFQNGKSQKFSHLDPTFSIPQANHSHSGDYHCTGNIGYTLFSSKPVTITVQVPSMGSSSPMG

T8: cynomolgus monkey FcγRIIa1 extracellular domain, C-terminal His-tag (cynomolgus monkey)
T8 construct: also called cyno FcγRIIa1; cynoFcgRIIa1; not shown: His-tag added to C-terminus
T8 chain: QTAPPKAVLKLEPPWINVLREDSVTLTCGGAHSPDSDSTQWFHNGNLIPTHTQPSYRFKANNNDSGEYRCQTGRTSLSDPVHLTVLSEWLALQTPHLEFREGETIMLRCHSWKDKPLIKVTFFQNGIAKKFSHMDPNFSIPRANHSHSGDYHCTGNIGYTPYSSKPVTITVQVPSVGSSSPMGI


Assays:
[1] = molecular target: T1, cynomolgus monkey FcγRIIa2 …; test: SPR; KD of SG1 divided by KD of the variant
[2] = molecular target: T2, cynomolgus monkey FcγRIIa1 …; test: SPR; KD of SG1 divided by KD of the variant
[3] = molecular target: T3, human FcγRIIaH extracellular domain, …; test: SPR; KD of SG1 divided by KD of the variant
[4] = molecular target: T4, cynomolgus monkey FcγRIIa3 …; test: SPR; KD of SG1 divided by KD of the variant
[5] = molecular target: T5, human FcγRIIb extracellular domain, …; test: SPR (BIACORE), antibody captured, FcγR analyte
Experimental: (§1) The kinetic analysis of interactions between these antibodies and FcγR was carried out using BIACORE® T200 or BIACORE® 4000 (GE Healthcare). HBS-EP+ (GE Healthcare) was used as the running buffer, and the measurement temperature was set to 25° C. A chip produced by immobilizing Protein A. Protein A/G or mouse anti-human IgG kappa light chain (BD Biosciences) onto a Series S Sensor Chip CM4 or CM5 (GE Healthcare) by the amine-coupling method was used. […] After the measurement, the antibody captured on the chip was washed off by allowing reaction with 10 mM glycine-HCl, pH1.5 and 25 mM NaOH so that the chip was regenerated and used repeatedly. The sensorgrams obtained as measurement results were analyzed by the 1:1 Langmuir binding model using the BIACORE® Evaluation Software to calculate the binding rate constant ka (L/mol/s) and dissociation rate constant kd (l/s), and the dissociation constant KD (mol/L) was calculated from these values. […] Regarding such interactions, KD values were calculated using the following 1:1 binding model described in BIACORE® T100 Software Handbook BR1006-48 Edition AE.
(§2) The behavior of interacting molecules according to the 1:1 binding model on BIACORE® can be described by Equation 1: Req=C·R max/(KD+C)+RI, wherein, Req is a plot of steady-state binding levels to analyte concentration. C is concentration, RI is bulk refractive index contribution in the sample, and Rmax is analyte binding capacity of the surface. When this equation is rearranged, KD can be expressed as Equation 2: KD=C·Rmax/(Req−RI)−C. KD can be calculated by substituting the values of Rmax, RI, and C into Equation 1 or Equation 2. From the current measurement conditions, RI=0, C=2 μmol/L can be used.

[6] = molecular target: T6, human FcγRIIaR extracellular domain, …; test: SPR (BIACORE), antibody captured, FcγR analyte
Experimental: as §1, §2

[7] = molecular target: T7, human FcγRIIaH extracellular domain, …; test: SPR (BIACORE), antibody captured, FcγR analyte
Experimental: as §1, §2

[8] = molecular target: T8, cynomolgus monkey FcγRIIa1 …; test: SPR (BIACORE), antibody captured, FcγR analyte
Experimental: as §1, §2

[9] = molecular target: T9, cynomolgus monkey FcγRIIIaS extracellular domain, C-terminal His-tag (cynomolgus monkey, UniProt A3RFZ7 21-206 (rhesus entry)); test: SPR (BIACORE), antibody captured, FcγR analyte
T9 construct: also called cyno FcγRIIIaS; cynoFcγRIIIaS; not shown: His-tag added to C-terminus
T9 sequence (A3RFZ7 21-206): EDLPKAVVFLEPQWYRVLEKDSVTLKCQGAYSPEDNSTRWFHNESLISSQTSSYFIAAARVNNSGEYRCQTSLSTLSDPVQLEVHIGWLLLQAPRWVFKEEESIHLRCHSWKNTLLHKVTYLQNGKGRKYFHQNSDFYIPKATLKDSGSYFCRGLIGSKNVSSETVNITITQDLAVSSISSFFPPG
Experimental: as §1, §2

KD fold (SG1 = 1) [1] [fold]	KD fold (SG1 = 1) [2] [fold]	KD fold (SG1 = 1) [3] [fold]	KD fold (SG1 = 1) [4] [fold]	Kd [5] [nM]	Kd [6] [nM]	Kd [7] [nM]	Kd [8] [nM]	Kd [9] [nM]	Binder
2.7	1.5	3.3	3.5	–	–	–	–	–	M103205H795-MY265/M103202L889-SK1 (antibody, human IgG1, kappa, copies: 2 + 2) heavy: QVTLKESGPVLVKPTETLTLTCTVSGIDLSHDDISWVRQAPGKGLEWVGIISYAGSTYYASWAKGRLTISKDTSKNQVVLTMTNMDPVDTATYYCARGVPAYSHGGDLWGQGTLVTVSSASTKGPSVFPLAPSSKSTSGGTAALGCLVKDYFPEPVTVSWNSGALTSGVHTFPAVLQSSGLYSLSSVVTVPSSSLGTQTYICNVNHKPSNTKVDKKVEPKSCDKTHTCPPCPAPELLTGPSVFLFPPKPKDTLMISRTPEVTCVVVDVSDEDPEVKFNWYVDGVEVHNAKTKPREEQYNSTYRVVSVLTVLHQDWLNGKEYKCKVSNKALPKPIEKTISKAKGQPREPQVYTLPPSREEMTKNQVSLTCLVKGFYPSDIAVEWESNGQPENNYKTTPPVLDSDGSFFLYSKLTVDKSRWQQGNVFSCSVMHEALHNHYTQKSLSLSP light: DIVMTQSPATLSLSPGERATLSCTSSQSVYHANWLSWFQQKPGQPPKLLIYWASTLAYGVPSRFSGSGSGTDFTLTISSLQPEDAATYYCAGGYGGGRYAFGQGTKVEIKRTVAAPSVFIFPPSDEQLKSGTASVVCLLNNFYPREAKVQWKVDNALQSGNSQESVTEQDSKDSTYSLSSTLTLSKADYEKHKVYACEVTHQGLSSPVTKSFNRGEC
–	–	–	–	4600	1100	690	3200	360	MS_M103205H795-SG1/M103202L889-SK1 (antibody, human IgG1, kappa, Parent antibody with SG1 human heavy chain constant region; also called MS1032LO06-SG1) heavy: not shown light: DIVMTQSPATLSLSPGERATLSCTSSQSVYHANWLSWFQQKPGQPPKLLIYWASTLAYGVPSRFSGSGSGTDFTLTISSLQPEDAATYYCAGGYGGGRYAFGQGTKVEIKRTVAAPSVFIFPPSDEQLKSGTASVVCLLNNFYPREAKVQWKVDNALQSGNSQESVTEQDSKDSTYSLSSTLTLSKADYEKHKVYACEVTHQGLSSPVTKSFNRGEC
